Assays:
macular edema = settings: in vivo; cited from earlier work
[1] = Curcumin safety for retina and CNS; settings: in vivo
Text: Deferoxamine may modulate expression and release of inflammatory mediators in the retinitis pigmentosa as indicated in Fenton reaction by specific cell types, thus, reduce or stop the damage by our invention. Deferoxamine used with insulin of our invention along with ophthalmic drops can reduce the ROS oxidant damage, arrest, or delay the processes of retinitis pigmentosa. We have used this method to treat the CNS disease with good results. We have used the extract of Turmeric, called curcumin, with insulin as antioxidant with good results.

[2] = cited from earlier work
[3] = MSM ophthalmic drops in patients; format: in vivo
Text: We have used aqueous solutions of MSM filtered, sterilized, and mixed with insulin.

retinitis pigmentosa [4] = settings: administered in a form suitable to obtain therapeutic tissue concentrations; cited from earlier work
[5] = system: patients with retinitis pigmentosa; settings: cited from earlier work
[6] = in vivo; cited from earlier work
[7] = ADT given orally and as eye drops in dry mouth and dry eyes conditions; format: in vivo; settings: 25 mg orally and nanograms concentration in eye drops
Method: Follow the instruction as described in the above EXAMPLE 1. Another drug available to treat autoimmune disease related to Sjogren's disease is an organo sulfur compound, anethole dithiolethione (ADT-trade name Sialor, sold over the counter in Canada) with hardly any side effects. The ADT stimulates the secretion of saliva, in patients with autoimmune exocrinopathy (Sjogren's syndrome). Sialor alleviates the symptoms of xerostomia and xeroophthalmia. We have used ADT 25 mg orally and ADT in nanograms concentration in liquid ophthalmic eye drops with successes in these conditions, especially, those on chemotherapy, menopausal women, and chronic smokers with dry mouth and dry eyes conditions.

photoreceptor cell = settings: applied topically to the eyes; in vitro model; cited from earlier work
retinitis pigmentosa [8] = experiment: Insulin ophthalmic drops in oculopathies including retinitis pigmentosa; format: in vivo; settings: used for years
Text: This and other metabolic and therapeutic qualities of the insulin will prevent the development, stop the progression, and curtail or cure the retinitis pigmentosa. I have used insulin ophthalmic drops for various oculopathies, including, retinitis pigmentosa for years with great success.

[9] = system: MCF-7 human breast cancer cells; settings: in vitro; cited from earlier work
[10] = Insulin added to anti allergic ophthalmic agents in eye allergy; format: in vivo; settings: insulin with vasoconstrictors and anti allergic agents such as corticosteroids
Text: Follow the instruction as described in the above EXAMPLE 1. The symptoms of an eye allergy are mild to moderate where allergies can be severe during early spring and the beginning of fall. Self treatment to avoid allergens, to irrigate the eyes with saline (salt solution) and to place the ice packs, and the cold water compresses on eyes which this may not be effective in a severe case. The medical treatment is needed to relieve them. Retinitis pigmentosa associated with severe allergic conjunctivitis. This condition isn't helped by other treatments. Conjunctivitis may benefit from specific allergen immunotherapy (desensitization) which the therapy is usually effective. Most commonly used and prescribed medications are: levocabastine (brand name Livostin); antihistamines (antolozine) together with a medicine that constricts blood vessels (naphazoline, phenylephrine); sodium cromoglycate (4%); non-steroidal anti-inflammatory (NSAID) eye drops; and steroids (hydrocortisone, Dexamethasone, prednisolone). Eye drops containing anti allergic, vasoconstrictors, and cortisone, can be used long term to treat retinitis pigmentosa and allergic conditions. The drops with insulin applied before the use of the above described therapeutic agents.

[11] = Text: The present invention formulations contain only 0.10 to 1.00 IU per drop which the dosage can be increased or the dosage can be decreased depending upon the disease states.
[12] = system: H2O2 induced lipid peroxidation; settings: insulin pretreatment; cited from earlier work
[13] = preliminary studies

CC(=O)Nc1nnc(S(N)(=O)=O)s1 [Acetazolamide]
improving the macular edema compared to brinzolamide (macular edema): more effective

COc1cc(/C=C/C(=O)CC(=O)/C=C/c2ccc(O)c(OC)c2)ccc1O [Curcumin, curcumin]
toxicity to the retina or the CNS [1]: isn't toxic to the retina or the CNS

CS(C)(=O)=O [MSM, Methylsulfonylmethane]
solubility in water [2]: soluble in water | vision reported by patients ([3]; MSM ophthalmic drops, aged, Lyme disease and cancer patients): their vision had improved | treatment result in retinitis pigmentosa, dry eye syndrome, glaucoma and other oculopathies ([3]; aqueous MSM mixed with insulin, as eye drops): good results

O=C(O)COc1nn(Cc2ccccc2)c2ccccc12 [bendazac, (1-phenylmethyl-1IH-indazol-3-yl) oxy acetic acid]
effect on retinitis pigmentosa (retinitis pigmentosa [4]): improvement in retinitis pigmentosa

CCCCCCCCCCCCCCCC(=O)OC/C=C(C)/C=C/C=C(C)/C=C/C1=C(C)CCCC1(C)C [vitamin A palmitate]
progression of retinitis pigmentosa ([5]; daily intake of 15000 IU (equivalent to 4.5 mg)): can be reduced

Insulin aspart
Onset of Action in hours [6]: ¼-½

Insulin detemir
Effective duration of action [6]: 14 h | Maximum duration [6]: ~20 h | Onset of Action [6]: 3 to 4 h | Peak action in hours [6]: 6 to 8 h

Insulin glargine
Effective duration of action [6]: 18 to 20 h | Maximum duration [6]: 20 to 24 h | Onset of Action [6]: 3 to 4 h | Peak action in hours [6]: 8 to 16 h

Insulin glulisine
Onset of Action in hours [6]: ¼-½

Insulin lispro
Onset of Action in hours [6]: ¼-½

Regular (soluble): short-acting insulin
Effective duration of action [6]: 3 to 6 h | Maximum duration [6]: 6 to 8 h | Peak action in hours [6]: 2 to 3 h

anethole dithiolethione [ADT]
treatment result in dry mouth and dry eyes conditions [7]: successes

brimonidine tartrate
photoreceptor cell degeneration (photoreceptor cell): can prevent photoreceptor cell degeneration

insulin
treatment result in oculopathies including retinitis pigmentosa (retinitis pigmentosa [8]): great success | increase of the cytotoxic effect of methotrexate [9]: up to 10,000 fold | relief of the allergic condition [10]: relieved rapidly | blood sugar levels after local application ([11]; local application incl. scalp, gums, oral and nasal mucosa, conjunctival sac, wounds, tumors): did not change the blood sugar levels | hypoglycemic effects ([11]; ophthalmic insulin drops, applicant's practice): never reported the development of a single case of hypoglycemic effects | H2O2 induced lipid peroxidation [12]: greatly inhibited | absorption from the conjunctival sac [13]: rapidly absorbed

vitamin A
postponement of blindness ([5]; vitamin A supplementation): ~10 years
